Numbering of substitutions follows the chain as printed. Names and notes keep the numbering of the source.

The target of the data set is T1, PUF4 RNA-binding domain (Saccharomyces cerevisiae, UniProt P25339 537-888).
T1 sequence: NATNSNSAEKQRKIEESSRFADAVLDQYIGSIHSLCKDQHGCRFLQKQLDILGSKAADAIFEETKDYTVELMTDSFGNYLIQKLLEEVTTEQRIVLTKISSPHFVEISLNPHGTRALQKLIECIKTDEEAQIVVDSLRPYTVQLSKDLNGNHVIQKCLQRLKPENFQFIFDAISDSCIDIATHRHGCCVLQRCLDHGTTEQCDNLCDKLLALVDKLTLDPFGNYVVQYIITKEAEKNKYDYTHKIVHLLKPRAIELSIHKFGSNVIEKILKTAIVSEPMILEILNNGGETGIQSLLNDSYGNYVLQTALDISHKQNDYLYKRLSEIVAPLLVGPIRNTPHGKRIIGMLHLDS
Description: Mg; RNA-MaP; 20 mM Na-HEPES pH 7.4, 30 mM KOAc, 0.75 mM MgCl2, 0.1% Tween-20, 5% glycerol, 0.1 mg/mL BSA, 2 mM DTT; 25 C; 0.0125-409.6 nM protein. Particulars: tags: N-His6-TEV cleaved; C-SNAP kept, Cy3B-labelled; label: tethered on chip by stalled RNA polymerase.

B1: Ic_S2_P4E.1_K4.1_C4.1_H4.1_A4.1_[T5C]_[A6C]_[T7A]_F4.1_[A9C]_T4.1 (ssRNA)
RNA: UUUGAUUAAUAUGAUAUCGUUCUUUCUUGUACCAUCUUCUUUCUCGAUAUCAUAUUAAUCUUU
Turning to B1, the Kd came to 9.15 nM.

B2: Ic_S2_P4E.1_K4.1_C4.1_H4.1_A4.1_[T5C]_[A6C]_F4.1_[T8C]_[A9G]_T4.1 (ssRNA)
RNA: B1 RNA with A34U, U35C, C36G
For B2, the affinity, expressed as Kd, was 54.9 nM.

B3: Ic_S2_P4E.1_K4.1_C4.1_H4.1_A4.1_[T5C]_[A6T]_F4.1_[T8C]_[A9C]_T4.1 (ssRNA)
RNA: B1 RNA with C33U, A34U, U35C
In turn, B3 displayed a Kd of 102 nM.

B4: Ic_S2_P4E.1_K4.1_C4.1_H4.1_A4.1_[T5C]_[A6C]_F4.1_[T8C]_[A9T]_T4.1 (ssRNA)
RNA: B1 RNA with A34U, U35C, C36U
B4 gave a Kd of 29.7 nM.

B5: Ic_S2_P4E.1_K4.1_C4.1_H4.1_A4.1_[T5C]_[A6C]_F4.1_[T8C]_T4.1 (ssRNA)
RNA: B1 RNA with A34U, U35C, C36A
B5 returned a dissociation constant Kd of 44.1 nM.

B6: Ic_S2_P4E.1_K4.1_C4.1_H4.1_A4.1_[T5C]_[A6T]_[T7A]_F4.1_[T8G]_[A9T]_T4.1 (ssRNA)
RNA: B1 RNA with C33U, U35G, C36U
In turn, B6 registered a Kd of 538 nM.

B7: Ic_S2_P4E.1_K4.1_C4.1_H4.1_A4.1_[T5C]_[A6C]_F4.1_[T8G]_[A9T]_T4.1 (ssRNA)
RNA: B1 RNA with A34U, U35G, C36U
For the molecule B7, the affinity, expressed as Kd, was 28.4 nM.

B8: Ic_S2_P4E.1_K4.1_C4.1_H4.1_A4.1_[T5C]_[A6T]_[T7G]_F4.1_[T8C]_[A9T]_T4.1 (ssRNA)
RNA: B1 RNA with C33U, A34G, U35C, C36U
Consider B8, for which the Kd came out at 157 nM.

B9: Ic_S2_P4E.1_K4.1_C4.1_H4.1_A4.1_[T5C]_[A6T]_[T7G]_F4.1_[A9T]_T4.1 (ssRNA)
RNA: B1 RNA with C33U, A34G, C36U
B9: the dissociation constant Kd was 28.6 nM.

B10: Ic_S2_P4E.1_K4.1_C4.1_H4.1_A4.1_[T5C]_[A6T]_F4.1_[T8C]_[A9G]_T4.1 (ssRNA)
RNA: B1 RNA with C33U, A34U, U35C, C36G
Consider B10, for which the Kd came out at 110 nM.

B11: Ic_S2_P4E.1_K4.1_C4.1_H4.1_A4.1_[T5C]_[A6T]_F4.1_[T8G]_[A9G]_T4.1 (ssRNA)
RNA: B1 RNA with C33U, A34U, U35G, C36G
As to B11, the Kd was 430 nM.

B12: Ic_S2_P4E.1_K4.1_C4.1_H4.1_A4.1_[T5C]_[A6T]_[T7G]_F4.1_T4.1 (ssRNA)
RNA: B1 RNA with C33U, A34G, C36A
As to B12, the Kd was 2.61 nM.

B13: Ic_S2_P4E.1_K4.1_C4.1_H4.1_A4.1_[T5C]_[A6T]_F4.1_[T8G]_[A9C]_T4.1 (ssRNA)
RNA: B1 RNA with C33U, A34U, U35G
B13 yielded a Kd of 365 nM.

B14: Ic_S2_P4E.1_K4.1_C4.1_H4.1_A4.1_[T5C]_[A6T]_[T7C]_F4.1_[T8C]_[A9C]_T4.1 (ssRNA)
RNA: B1 RNA with C33U, A34C, U35C
As for B14, the Kd came out at 242 nM.

B15: Ic_S2_P4E.1_K4.1_C4.1_H4.1_A4.1_[T5C]_[A6T]_[T7C]_F4.1_T4.1 (ssRNA)
RNA: B1 RNA with C33U, A34C, C36A
B15: the affinity, expressed as Kd, was 0.967 nM.

B16: Ic_S2_P4E.1_K4.1_C4.1_H4.1_A4.1_[T5C]_[A6T]_[T7A]_F4.1_[A9C]_T4.1 (ssRNA)
RNA: B1 RNA with C33U
In the case of B16, the dissociation constant (Kd) stood at 9.16 nM.

B17: Ic_S2_P4E.1_K4.1_C4.1_H4.1_A4.1_[T5C]_[A6T]_F4.1_[T8G]_[A9T]_T4.1 (ssRNA)
RNA: B1 RNA with C33U, A34U, U35G, C36U
On to B17, for which the dissociation constant (Kd) worked out at 72.9 nM.

B18: Ic_S2_P4E.1_K4.1_C4.1_H4.1_A4.1_[T5C]_[A6T]_[T7A]_F4.1_[T8C]_T4.1 (ssRNA)
RNA: B1 RNA with C33U, U35C, C36A
For the molecule B18, the Kd is 353 nM.

B19: Ic_S2_P4E.1_K4.1_C4.1_H4.1_A4.1_[T5C]_[A6T]_[T7A]_F4.1_[T8A]_[A9C]_T4.1 (ssRNA)
RNA: B1 RNA with C33U, U35A
B19 gave a Kd of 519 nM.

B20: Ic_S2_P4E.1_K4.1_C4.1_H4.1_A4.1_[T5C]_[A6C]_F4.1_[T8A]_[A9T]_T4.1 (ssRNA)
RNA: B1 RNA with A34U, U35A, C36U
For the molecule B20, the affinity, expressed as Kd, was 9.29 nM.

B21: Ic_S2_P4E.1_K4.1_C4.1_H4.1_A4.1_[T5C]_[A6T]_F4.1_[T8A]_[A9C]_T4.1 (ssRNA)
RNA: B1 RNA with C33U, A34U, U35A
For B21, the Kd was 85.2 nM.

B22: Ic_S2_P4E.1_K4.1_C4.1_H4.1_A4.1_[T5C]_[A6T]_F4.1_[T8C]_T4.1 (ssRNA)
RNA: B1 RNA with C33U, A34U, U35C, C36A
On to B22, for which the affinity, expressed as Kd, was 53.5 nM.

B23: Ic_S2_P4E.1_K4.1_C4.1_H4.1_A4.1_[T5C]_[A6T]_F4.1_[T8A]_[A9T]_T4.1 (ssRNA)
RNA: B1 RNA with C33U, A34U, U35A, C36U
Regarding B23, the equilibrium dissociation constant (Kd) worked out at 13.6 nM.

B24: Ic_S2_P4E.1_K4.1_C4.1_H4.1_A4.1_[T5C]_[A6T]_F4.1_[T8C]_[A9T]_T4.1 (ssRNA)
RNA: B1 RNA with C33U, A34U, U35C, C36U
On to B24, for which the Kd was 24.4 nM.

B25: Ic_S2_P4E.1_K4.1_C4.1_H4.1_A4.1_[T5C]_[A6C]_F4.1_[A9G]_T4.1 (ssRNA)
RNA: B1 RNA with A34U, C36G
As to B25, the affinity, expressed as Kd, was 14 nM.

B26: Ic_S2_P4E.1_K4.1_C4.1_H4.1_A4.1_[T5C]_[A6T]_[T7C]_F4.1_[T8C]_T4.1 (ssRNA)
RNA: B1 RNA with C33U, A34C, U35C, C36A
Take B26: the Kd came to 213 nM.

B27: Ic_S2_P4E.1_K4.1_C4.1_H4.1_A4.1_[T5C]_[A6T]_F4.1_[T8A]_[A9G]_T4.1 (ssRNA)
RNA: B1 RNA with C33U, A34U, U35A, C36G
With B27, the affinity, expressed as Kd, was 141 nM.

B28: Ic_S2_P4E.1_K4.1_C4.1_H4.1_A4.1_[T5C]_[A6C]_F4.1_[T8C]_[A9C]_T4.1 (ssRNA)
RNA: B1 RNA with A34U, U35C
B28: binding was put at a Kd of 79.4 nM.

B29: Ic_S2_P4E.1_K4.1_C4.1_H4.1_A4.1_[T5C]_[A6T]_[T7G]_F4.1_[T8C]_T4.1 (ssRNA)
RNA: B1 RNA with C33U, A34G, U35C, C36A
For the molecule B29, the Kd was 753 nM.

B30: Ic_S2_P4E.1_K4.1_C4.1_H4.1_A4.1_[T5C]_[A6T]_[T7C]_F4.1_[T8C]_[A9T]_T4.1 (ssRNA)
RNA: B1 RNA with C33U, A34C, U35C, C36U
Turning to B30, the affinity, expressed as Kd, was 103 nM.

B31: Ic_S2_P4E.1_K4.1_C4.1_H4.1_A4.1_[T5C]_[A6C]_F4.1_[A9C]_T4.1 (ssRNA)
RNA: B1 RNA with A34U
Turning to B31, binding was put at a Kd of 21.5 nM.

B32: Ic_S2_P4E.1_K4.1_C4.1_H4.1_A4.1_[T5C]_[A6C]_F4.1_[T8A]_[A9G]_T4.1 (ssRNA)
RNA: B1 RNA with A34U, U35A, C36G
In turn, B32 gave a Kd of 77.3 nM.

B33: Ic_S2_P4E.1_K4.1_C4.1_H4.1_A4.1_[T5C]_[A6T]_[T7G]_F4.1_[T8C]_[A9C]_T4.1 (ssRNA)
RNA: B1 RNA with C33U, A34G, U35C
As to B33, binding was characterised by a dissociation constant (Kd) of 467 nM.

B34: Ic_S2_P4E.1_K4.1_C4.1_H4.1_A4.1_[T5C]_[A6T]_[T7C]_F4.1_[T8A]_[A9T]_T4.1 (ssRNA)
RNA: B1 RNA with C33U, A34C, U35A, C36U
B34 returned a Kd of 68.6 nM.

B35: Ic_S2_P4E.1_K4.1_C4.1_H4.1_A4.1_[T5C]_[A6C]_F4.1_[A9T]_T4.1 (ssRNA)
RNA: B1 RNA with A34U, C36U
Molecule B35 returned a Kd of 6.99 nM.

B36: Ic_S2_P4E.1_K4.1_C4.1_H4.1_A4.1_[T5C]_[A6T]_[T7C]_F4.1_[T8G]_[A9C]_T4.1 (ssRNA)
RNA: B1 RNA with C33U, A34C, U35G
As for B36, binding was put at a Kd of 879 nM.

B37: Ic_S2_P4E.1_K4.1_C4.1_H4.1_A4.1_[T5C]_[A6T]_[T7G]_F4.1_[T8G]_[A9T]_T4.1 (ssRNA)
RNA: B1 RNA with C33U, A34G, U35G, C36U
Regarding B37, binding was put at a Kd of 966 nM. As for UCUCUUUGUAUAUUUUCUCUU (ssRNA) [Ia_S1_P4E.1_K4.1_C4.1_H4.1_A4.1_F4.1_[A9T]_T4.1], binding was put at a Kd of 4.51 nM. Consider UCUCUUUGUAGCUAUCUCUU (ssRNA) [Ib_S1_P3E.1_K3.1_C3.1_H3.1_A3.1_[T5G]_[A6C]_F3.1_T3.1], for which binding was characterised by a dissociation constant (Kd) of 819 nM.

In turn, UCUCUUUGUUUUUAUCUCUU (ssRNA) [Ib_S1_P3E.1_K3.1_C3.1_H3.1_[A4T]_A3.1_[A6T]_F3.1_T3.1] returned a Kd of 1670 nM. On to UCUCUUUGUUUCUAUCUCUU (ssRNA) [Ib_S1_P3E.1_K3.1_C3.1_H3.1_[A4T]_A3.1_[A6C]_F3.1_T3.1], for which the Kd is more than 2300 nM. Molecule UCUCUUUGUUUGUAUCUCUU (ssRNA) [Ib_S1_P3E.1_K3.1_C3.1_H3.1_[A4T]_A3.1_[A6G]_F3.1_T3.1] displayed a Kd of 133 nM.

The record behind these values is article PMC9352680, “A comprehensive thermodynamic model for RNA binding by the Saccharomyces cerevisiae Pumilio protein PUF4”.
